{"source": "paper PMC8197028", "assay_in_all_cases": "NMR", "key": {"[1]": {"target": "Asp46 (UniProt position 796, -LSDEDFKAVF)", "settings": "native (folded) state"}, "[2]": {"target": "Glu45 (UniProt position 795, --LSDEDFKAV)", "settings": "native (folded) state"}, "[3]": {"target": "Glu72 (UniProt position 822, QHLKKEKGLF-)", "settings": "native (folded) state"}, "[4]": {"target": "Asp44 (UniProt position 794, ---LSDEDFKA)", "settings": "native (folded) state; cited from earlier work"}, "[5]": {"tested_on": "Asp44", "settings": "isolated peptide fragments, largely unstructured; cited from earlier work"}, "[6]": {"settings": "fully folded over the whole pH range"}}, "data": [{"substance": "Villin headpiece helical subdomain HP36 D44N (not stated in the article (Gallus gallus inferred); D44N)", "values": [{"measurement": "pKa", "setting": "[1]; [6]", "value": "3.43±0.05"}, {"measurement": "pKa", "setting": "[2]; [6]", "value": "3.86±0.02"}, {"measurement": "pKa", "setting": "[3]; [6]", "value": "4.32±0.02"}]}, {"substance": "Villin headpiece helical subdomain HP36 D44N/K48M (not stated in the article (Gallus gallus inferred); D44N;K48M)", "values": [{"measurement": "pKa", "setting": "[1]; [6]", "value": "3.49±0.08"}, {"measurement": "pKa", "setting": "[2]; [6]", "value": "4.39±0.05"}, {"measurement": "pKa", "setting": "[3]; [6]", "value": "4.37±0.03"}]}, {"substance": "Villin headpiece helical subdomain HP36 K48M (not stated in the article (Gallus gallus inferred); K48M)", "values": [{"measurement": "pKa", "setting": "[1]; cited from earlier work", "value": "3.38±0.05"}, {"measurement": "pKa", "setting": "[4]", "value": "3.23±0.07"}, {"measurement": "pKa", "setting": "[2]; cited from earlier work", "value": "4.68±0.09"}, {"measurement": "pKa", "setting": "[3]; cited from earlier work", "value": "4.41±0.03"}]}, {"substance": "HP36 peptide fragment, residues 41-53 (not stated in the article (Gallus gallus inferred))", "values": [{"measurement": "pKa", "setting": "[5]", "value": 4.00}]}, {"substance": "Villin headpiece helical subdomain HP36, wild type (not stated in the article (Gallus gallus inferred))", "values": [{"measurement": "pKa", "setting": "[1]; cited from earlier work", "value": "3.44±0.11"}, {"measurement": "pKa", "setting": "[4]", "value": "3.04±0.12"}, {"measurement": "pKa", "setting": "[2]; cited from earlier work", "value": "3.95±0.02"}, {"measurement": "pKa", "setting": "[3]; cited from earlier work", "value": "4.37±0.03"}]}]}
